Measured values reported in patent US20200276237A1 (MIE UNIVERSITY, published 2020).

Experiments:
[1] = target: T1, HLA-A2/MAGE-A8 risk peptide on T2 cells (human); assay: FACS on T2 cells pulsed with risk peptide
T1 construct: whole, on cells

[2] = target: T2, HLA-A2/MAGE-A10 risk peptide on T2 cells (human); assay: FACS on T2 cells pulsed with risk peptide
T2 construct: whole, on cells

[3] = target: T3, HLA-A2/MAGE-A11 risk peptide on T2 cells (human); assay: FACS on T2 cells pulsed with risk peptide
T3 construct: whole, on cells

[4] = target: T4, HLA-A2/MAGE-B2 risk peptide on T2 cells (human); assay: FACS on T2 cells pulsed with risk peptide
T4 construct: whole, on cells

[5] = target: T5, HLA-A2/MAGE-B10 risk peptide on T2 cells (human); assay: FACS on T2 cells pulsed with risk peptide
T5 construct: whole, on cells

[6] = target: T6, HLA-A2/MAGE-C2 risk peptide on T2 cells (human); assay: FACS on T2 cells pulsed with risk peptide
T6 construct: whole, on cells

[7] = target: T7, HLA-A2/RBBP5 risk peptide on T2 cells (human); assay: FACS on T2 cells pulsed with risk peptide
T7 construct: whole, on cells; Theoretical MHC IC50 is high (5880.0 nM)

[8] = target: T8, HLA-A2-MAGE-A4 p230 monomer (human); assay: SPR, BiacoreX100, HLA-A2-MAGE-A4 p230 on sensor chip CAP, purified scFv 12.5-200 nM, single cycle
T8 construct: Biotinylated soluble monomer, captured on neutravidin plates (ELISA) or on the Biacore sensor chip CAP; also called HLA-A2-MAGE-A4 monomer; MAGE-A4-derived peptide/HLA-A2 complex
Procedure: Determination of KD value by Biacore was determined by measuring the dynamic changes in detection sensitivity (resonance, reflecting the change in mass on the chip) over time. The dissociation rate constant (Kd) and the binding rate constant (Ka) were determined by dynamic change curve, the binding constant was determined from the ratio of the two constants.

B1: MAGE #17 scFv-FLAG/His (scFv)
scFv: QVQLVQSGAEVKKPGSSVKVSCKASGGTFSSYAISWVRQAPGQGLEWMGGIIPIFGTANYAQKFQGRVTITADKSTSTAYMELSSLRSEDTAVYYCARSPRRAYHDAFDIWGQGTMVTVSSGGGGSGGGGSGGGGSSYELTQPPSMSVAPGKTASITCGGDHIGSKSVHWYQQKPGQAPVLVVYDDSDRPSGIPERFSGSNSGNTATLTISGTQAMDEADYYCLAWDSSTAIFGGGTKLTVL
notes: Purified scFv-FLAG/His form, used for Biacore and for FACS on T2 cells (detection with anti-FLAG); also called clone #17; anti-MAGE #17; not shown: FLAG tag and His tag from the His/FLAG expression vector
**Q.** What does the source list for B1?
**A.** binding result [1]: no binding; binding result [2]: no binding; binding result [3]: no binding; binding result [4]: no binding; binding result [5]: no binding; binding result [6]: no binding; binding result [7]: no binding; Kd [8]: 22 nM
